Data published in US20100075374A1, “Methods for capturing nascent proteins” (AMBERGEN, INC., priority 2007, published 2010).
One block for each molecule: values may come before it.

Assays:
PKCα = biological target: T1, PKCα (Homo sapiens, UniProt P17252); assay: PMA mediated PKCα sub-cellular translocation measured by kinase activity after photocleavable antibody isolation; format: cell-based; conditions: HeLa cells, 200 nM PMA for 5 min, n=4
T1 construct: isolate and photo-release endogenous PKCa from the undiluted detergent fractionated HeLa cell extracts; endogenous in cells; host or cells: HeLa cells (ATCC)
Experimental: Cultured HeLa cells (ATCC; Manassas, Va.) were stimulated for 5 min with 200 nM Phorbol-12-Myristate-13-Acetate (PMA; EMD Biosciences, Inc., San Diego, Calif.) and subsequently detergent fractionated into sub-cellular compartments according to reported procedures [Ramsby et al. (1994) Electrophoresis 15, 265-277; Ramsby & Makowski. (1999) Methods Mol Biol 112, 53-66; Chiang et al. (2000) J Biochem Biophys Methods 46, 53-68]. PMA is a potent activator of PKCα and is well known to cause translocation of the kinase from the cytosolic to the membrane sub-cellular compartments [Ross & Joyner. (1997) Endothelium 5, 321-332; Bazan & Rapoport. (1996) JPharmacol Toxicol Methods 36, 87-95; Yazlovitskaya & Melnykovych. (1995) Cancer Lett 88, 179-183].
A photocleavable antibody conjugated solid affinity matrix was prepared and used to isolate and photo-release the antigen into solution essentially as described in Example 2 except that in this case, a photocleavable anti-IgG secondary antibody was used to immobilize the unlabeled primary antibody onto the solid affinity matrix. This antibody affinity matrix was used to isolate and photo-release endogenous PKCa from the undiluted detergent fractionated HeLa cell extracts. […]

[1] = biological target: T2, human recombinant ZAP-70 tyrosine kinase (Homo sapiens, UniProt P43403); assay: kinase substrate profiling on photo-transferred proteins, phosphotyrosine detection; format: biochemical; conditions: plus ATP kinase reaction, 30 min at 37° C.
T2 construct: purchased Invitrogen Corporation
T2 sequence (P43403 1-619): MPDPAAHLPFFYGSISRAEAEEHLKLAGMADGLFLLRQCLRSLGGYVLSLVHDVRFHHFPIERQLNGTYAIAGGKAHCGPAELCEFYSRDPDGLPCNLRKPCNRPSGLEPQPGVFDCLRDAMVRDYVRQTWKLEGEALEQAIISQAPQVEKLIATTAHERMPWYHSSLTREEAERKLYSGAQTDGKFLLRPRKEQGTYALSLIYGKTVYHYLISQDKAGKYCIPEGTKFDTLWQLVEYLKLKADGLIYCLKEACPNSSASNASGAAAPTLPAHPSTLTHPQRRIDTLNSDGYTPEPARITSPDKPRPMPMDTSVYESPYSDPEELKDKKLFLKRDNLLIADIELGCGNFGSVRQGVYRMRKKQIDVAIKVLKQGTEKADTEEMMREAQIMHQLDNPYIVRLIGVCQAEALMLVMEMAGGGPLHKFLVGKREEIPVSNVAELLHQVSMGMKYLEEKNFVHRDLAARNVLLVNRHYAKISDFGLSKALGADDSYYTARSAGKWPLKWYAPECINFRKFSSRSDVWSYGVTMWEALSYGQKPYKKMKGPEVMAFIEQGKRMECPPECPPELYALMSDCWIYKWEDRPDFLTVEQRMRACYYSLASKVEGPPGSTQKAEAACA

[2] = biological target: T3, human recombinant Src pp^60 tyrosine kinase (Homo sapiens, UniProt P12931); assay: as above; format: biochemical; conditions: plus ATP kinase reaction, 30 min at 37° C.
T3 construct: purchased Invitrogen Corporation

MDM2 bait = biological target: T4, MDM2 bait (Homo sapiens, UniProt Q00987); assay: p53-MDM interaction assay, pre-formed complexes of cell-free expressed proteins, contact photo-transfer; format: binding; conditions: complexes formed before contact photo-transfer
T4 construct: made in house; host or cells: rabbit reticulocyte lysate, coupled cell-free transcription/translation
Experimental: BODIPY-FL-tRNA^COMPLETE was used for fluorescence labeling (at 2 μM) instead of BODIPY-FL-tRNA^Lys. The cell-free expressed p53 “probe” was labeled only with BODIPY-FL using the BODIPY-FL-tRNA^COMPLETE and was not labeled with PC-biotin in any way. […] The “bait” proteins were labeled only with PC-Biotin-tRNA^COMPLETE (at 1 μM) and not with BODIPY-FL in any way. The Translation Dilution Buffer (TDB) used to stop the reaction and prepare the sample contained no BSA or other protein carrier, 10 mM DTT instead of 2 mM and additionally contained 20 mM EDTA added from a 500 mM pH 8.0 stock and 4 mM cycloheximide (Sigma-Aldrich, St. Louis, Mo.) added from a 355 mM stock in DMSO.
All steps were performed at +4° C. or on an ice water bath and all reagents and samples were also kept under these conditions during the procedure. […] To facilitate addition of small bead volumes to the samples, the beads were initially prepared to a 10% (v/v) bead suspension with 5 mM DTT in PBS. The samples, now 80 μL each, were then mixed with 10 μL of the 10% (v/v) bead suspension corresponding to addition of 1 μL packed bead volume. After capture on the NeutrAvidin beads for 1 hr, beads were washed by mixing 3× briefly (briefly=5 sec vortex mix) in 400 bead volumes per wash of PBS pH 7.5 and 5 mM DTT. […]

T4 sequence (Q00987 whole entry): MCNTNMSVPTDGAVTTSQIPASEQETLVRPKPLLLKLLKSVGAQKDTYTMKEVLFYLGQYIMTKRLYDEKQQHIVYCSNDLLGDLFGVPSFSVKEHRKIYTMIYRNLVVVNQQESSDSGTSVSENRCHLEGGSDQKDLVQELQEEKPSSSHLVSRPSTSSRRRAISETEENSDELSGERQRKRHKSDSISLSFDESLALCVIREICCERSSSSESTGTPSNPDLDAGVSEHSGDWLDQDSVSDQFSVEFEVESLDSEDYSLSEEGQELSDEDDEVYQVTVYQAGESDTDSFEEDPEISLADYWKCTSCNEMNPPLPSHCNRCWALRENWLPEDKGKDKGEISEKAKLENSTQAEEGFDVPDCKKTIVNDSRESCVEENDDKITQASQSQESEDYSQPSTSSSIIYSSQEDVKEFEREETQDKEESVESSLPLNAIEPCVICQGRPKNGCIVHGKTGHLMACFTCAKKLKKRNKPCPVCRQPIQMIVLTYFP

Molecule: CCCCCCCCCCCCCC(=O)O[C@@H]1[C@@H](C)[C@@]2(O)[C@@H](C=C(CO)C[C@]3(O)C(=O)C(C)=C[C@@H]23)[C@@H]2C(C)(C)[C@]12OC(C)=O [PMA, Phorbol-12-Myristate-13-Acetate]
PKCα distribution, membrane, based on kinase activity (PKCα; baseline 21±2% membrane): 84±3%
PKCα distribution, cytosol, based on kinase activity (PKCα; baseline 79±7% cytosol): 16±4%

phosphorylation by ZAP-70 [1]: does not phosphorylate
phosphorylation by Src pp^60 [2]: significant phosphorylation
Molecule: CK: cell-free expressed human casein kinase II, contact photo-transferred to microarray

binding of cell-free expressed p53 probe to MDM bait (MDM2 bait): selective binding
Molecule: p53 “probe”: cell-free expressed human p53 labeled only with BODIPY-FL using BODIPY-FL-tRNA COMPLETE
